Reference: publication PMC4765788, “Role of a chalcone isomerase-like protein in flavonoid biosynthesis in Arabidopsis thaliana” (Journal of Experimental Botany, 2015)

Target: the molecule itself
Experiment: native gel or EMSA; purified recombinant protein run on a non-denaturing PAGE gel

B1: recombinant TT5 protein (chalcone isomerase), His-tagged (enzyme, Arabidopsis thaliana, UniProt P41088 1-246, looked up)
chain: MSSSNACASPSPFPAVTKLHVDSVTFVPSVKSPASSNPLFLGGAGVRGLDIQGKFVIFTVIGVYLEGNAVPSLSVKWKGKTTEELTESIPFFREIVTGAFEKFIKVTMKLPLTGQQYSEKVTENCVAIWKQLGLYTDCEAKAVEKFLEIFKEETFPPGSSILFALSPTGSLTVAFSKDDSIPETGIAVIENKLLAEAVLESIIGKNGVSPGTRLSVAERLSQLMMKNKDEKEVSDHSVEEKLAKEN
notes: TT5, chalcone isomerase, Arabidopsis thaliana, At3g55120; ORF cloned into pQE-30; pQE-30 usually adds an N-terminal His6 tag (surmised); also called CHI
stoichiometry N: 4
